From the Human Domainome abundance scans (Beltran et al. 2025)
± gives the uncertainty stated by the source.

B1: POU domain, class 6, transcription factor 2, residues 609 to 663; numbered along this chain, P78424 (parent)
chain: KRRTSFTPQALEILNAHFEKNTHPSGQEMTEIAEKLNYDREVVRVWFCNKRQALK

Variants of: B1
Experiment: abundance fitness (aPCA) (normalised: wild type 0, dead -1); higher = more abundant; growth selection in yeast, the domain comes from the species named
Settings: Homo sapiens

Row | Variant | abundance fitness
1 | KRRTSFTPQALEILNAHFEKNTHPSGQEMTEIAEKLNYDREVVRVWNCNKRQALK | -1.08 ± 0.19
2 | KRRTSFTPQALEILNAHFEKNTHPSGQEMTEIAEKLNYDREVVRVWQCNKRQALK | -0.807 ± 0.12
3 | KRRTSFTPQALEILNAHFEKNTHPSGQEMTEIAEKLNYDREVVRVWACNKRQALK | -0.744 ± 0.072
4 | KRRTSFTPQALEILNAHFEKNTHPSGQEMTEIAEKLNYDREVVRVWECNKRQALK | -0.89 ± 0.1
5 | KRRTSFTPQALEILNAHFEKNTHPSGQEMTEIAEKLNYDREVVRVWKCNKRQALK | -0.722 ± 0.11
6 | KRRTSFTPQALEILNAHFEKNTHPSGQEMTEIAEKLNYDREVVRVWCCNKRQALK | -0.843 ± 0.087
7 | KRRTSFTPQALEILNAHFEKNTHPSGQEMTEIAEKLNYDREVVRVWTCNKRQALK | -0.763 ± 0.1
8 | KRRTSFTPQALEILNAHFEKNTHPSGQEMTEIAEKLNYDREVVRVWDCNKRQALK | -0.762 ± 0.13
9 | KRRTSFTPQALEILNAHFEKNTHPSGQEMTEIAEKLNYDREVVRVWPCNKRQALK | -0.775 ± 0.1
10 | KRRTSFTPQALEILNAHFEKNTHPSGQEMTEIAEKLNYDREVVRVWLCNKRQALK | -0.782 ± 0.069
11 | KRRTSFTPQALEILNAHFEKNTHPSGQEMTEIAEKLNYDREVVRVWMCNKRQALK | -0.686 ± 0.091
12 | KRRTSFTPQALEILNAHFEKNTHPSGQEMTEIAEKLNYDREVVRVWGCNKRQALK | -0.853 ± 0.068
13 | KRRTSFTPQALEILNAHFEKNTHPSGQEMTEIAEKLNYDREVVRVWSCNKRQALK | -0.81 ± 0.071
14 | KRRTSFTPQALEILNAHFEKNTHPSGQEMTEIAEKLNYDREVVRVWHCNKRQALK | -0.913 ± 0.16
15 | KRRTSFTPQALEILNAHFEKNTHPSGQEMTEIAEKLNYDREVVRVWRCNKRQALK | -0.949 ± 0.06
16 | KRRTSFTPQALEILNAHFEKNTHPSGQEMTEIAEKLNYDREVVVVWFCNKRQALK | 0.034 ± 0.083
17 | KRRTSFTPQALEILNAHFEKNTHPSGQEMTEIAEKLNYDREVVSVWFCNKRQALK | -0.094 ± 0.074
18 | KRRTSFTPQALEILNAHFEKNTHPSGQEMTEIAEKLNYDREVVWVWFCNKRQALK | 0.037 ± 0.078
19 | KRRTSFTPQALEILNAHFEKNTHPSGQEMTEIAEKLNYDREVVTVWFCNKRQALK | 0.018 ± 0.1
20 | KRRTSFTPQALEILNAHFEKNTHPSGQEMTEIAEKLNYDREVVYVWFCNKRQALK | 0.062 ± 0.13
21 | KRRTSFTPQALEILNAHFEKNTHPSGQEMTEIAEKLNYDREVVRVWFGNKRQALK | -0.008 ± 0.12
22 | KRRTSFTPQALEILNAHFEKNTHPSGQEMTEIAEKLNYDREVVRVWFQNKRQALK | 0.279 ± 0.38
23 | KRRTSFTPQALEILNAHFEKNTHPSGQEMTEIAEKLNYDREVVRVWFRNKRQALK | -0.057 ± 0.19
24 | KRRTSFTPQALEILNAHFEKNTHPSGQEMTEIAEKLNYDREVVRVWFNNKRQALK | 0.277 ± 0.43

Row | Variant | abundance fitness
25 | KRRTSFTPQALEILNAHFEKNTHPSGQEMTEIAEKLNYDREVVRVWFDNKRQALK | -0.144 ± 0.37
26 | KRRTSFTPQALEILNAHFEKNTHPSGQEMTEIAEKLNYDREVVRVWFENKRQALK | 0.259 ± 0.22
27 | KRRTSFTPQALEILNAHFEKNTHPSGQEMTEIAEKLNYDREVVRVWFSNKRQALK | 0.039 ± 0.16
28 | KRRTSFTPQALEILNAHFEKNTHPSGQEMTEIAEKLNYDREVVRVWFFNKRQALK | -0.5 ± 0.43
29 | KRRTSFTPQALEILNAHFEKNTHPSGQEMTEIAEKLNYDREVVRVWFWNKRQALK | 0.02 ± 0.37
30 | KRRTSFTPQALEILNAHFEKNTHPSGQEMTEIAEKLNYDREVVRVWFTNKRQALK | -0.197 ± 0.44
31 | KRRTSFTPQALEILNAHFEKNTHPSGQEMTEIAEKLNYDREVVRVWFMNKRQALK | 0.18 ± 0.39
32 | KRRTSFTPQALEILNAHFEKNTHPSGQEMTEIAEKLNYDREVVRVWFVNKRQALK | 0.124 ± 0.36
33 | KRRTSFTPQALEILNAHFEKNTHPSGQEMTEIAEKLNYDREVVRVWFYNKRQALK | -0.062 ± 0.17
34 | KRRTSFTPQALEILNAHFEKNTHPSGQEMTEIAEKLNYDREVVRVWFINKRQALK | -0.475 ± 0.36
35 | KRRTSFTPQALEILNAHFEKNTHPSGQEMTEIAEKLNYDREVVRVGFCNKRQALK | -0.707 ± 0.11
36 | KRRTSFTPQALEILNAHFEKNTHPSGQEMTEIAEKLNYDREVVRVEFCNKRQALK | -0.91 ± 0.21
37 | KRRTSFTPQALEILNAHFEKNTHPSGQEMTEIAEKLNYDREVVRVNFCNKRQALK | -0.891 ± 0.23
38 | KRRTSFTPQALEILNAHFEKNTHPSGQEMTEIAEKLNYDREVVRVDFCNKRQALK | -0.447 ± 0.26
39 | KRRTSFTPQALEILNAHFEKNTHPSGQEMTEIAEKLNYDREVVRVIFCNKRQALK | -0.828 ± 0.41
40 | KRRTSFTPQALEILNAHFEKNTHPSGQEMTEIAEKLNYDREVVRVRFCNKRQALK | -0.753 ± 0.1
41 | KRRTSFTPQALEILNAHFEKNTHPSGQEMTEIAEKLNYDREVVRVQFCNKRQALK | -0.827 ± 0.43
42 | KRRTSFTPQALEILNAHFEKNTHPSGQEMTEIAEKLNYDREVVRVHFCNKRQALK | -0.53 ± 0.42
43 | KRRTSFTPQALEILNAHFEKNTHPSGQEMTEIAEKLNYDREVVRVKFCNKRQALK | -0.983 ± 0.43
44 | KRRTSFTPQALEILNAHFEKNTHPSGQEMTEIAEKLNYDREVVRVFFCNKRQALK | -0.405 ± 0.29
45 | KRRTSFTPQALEILNAHFEKNTHPSGQEMTEIAEKLNYDREVVRVCFCNKRQALK | -0.997 ± 0.28
46 | KRRTSFTPQALEILNAHFEKNTHPSGQEMTEIAEKLNYDREVVRVPFCNKRQALK | -0.801 ± 0.26
47 | KRRTSFTPQALEILNAHFEKNTHPSGQEMTEIAEKLNYDREVVRVVFCNKRQALK | -1.02 ± 0.13
48 | KRRTSFTPQALEILNAHFEKNTHPSGQEMTEIAEKLNYDREVVRVYFCNKRQALK | 0.032 ± 0.23
